Consider two substances from paper PMC3143253.

The target in test [1] is IAEDANS-labeled CaM-K75C (UniProt P0DP23). The test is described as follows: other fluorescence titration.
Test [2] addresses calmodulin (UniProt P0DP23). Nature of the test: ITC. (ITC needs no label: the signal is the heat of the interaction.)
Test [3] deals with IAEDANS-labeled CaM-K75C (UniProt P0DP23). The test is described as follows: other fluorescence titration. This is another data set of the same source.
The target in test [4] is TMR-conjugated CLS-S329C, reconstituted in liposomes (human). Nature of the test: other fluorescence titration.

Like-named read-outs stand apart in the source and are kept apart here.

Take “ARR18 peptide (entire cytoplasmic domain of human L-selectin)”: in test [1], the Kd (commonly the equilibrium constant for the complex coming apart) is 2.1 µM. In test [2], the Ka is 204000 M⁻¹, the Kd is 4.9 µM, the dH is -3.22 kJ/mol and the stoichiometry N (commonly a count of units in the complex or per binding partner) turned out to be 0.92. For the same substance, in test [3], the Kd came out at 2.5 µM.

The substance “calmodulin (from UniProt P0DP23 1-149) (natural protein)” returned a Kd in test [4] of 1.7 µM.
